{
  "source": "paper PMC6362427",
  "about": "“Identification of Three (Iso)flavonoid Glucosyltransferases From Pueraria lobata” (Frontiers in Plant Science, 2019)",
  "proteins": {"B1": {"name": "PlUGT4 (Pueraria montana var. lobata) (protein)", "chain": "MEKPHIAVVPSPGFTHLVPILEFSKRLLHLHPEFHITCFIPSVGSPPSSSKAYLQTLPPTITSIFLPPITLDDVPDPSILALQIELSVNLSLPYIKQELESLCSRAKVVALVVDVFANGALDFAKELNLLSYIYLPQSAMLLSLYFYSTKLDEILSSAFRDLTKPIEIPGCVPIHNKDLPIHFQNLSSIGYKGFLERSKRFHVPDGVFMNTFLELEPGAIRALQELVKGKPKVYPVGPIIQMGSVGHENRVECLTWLDKQQEPNSVLYVSFGSGGTLSQEQLNELAFGLELSGQKFLWVVRAPSSVATVGYFCAETKDPLEFLPHGFLERTKEQGLVVPSWAPQIQVLSHGATGGFLSHCGWNSVLESVVQGVPVITWPLFAEQSLNAAMLTDDLKVALRPKVNESGLAEREEIAKVVRGLMEGNEGMEIRKRMGLLKIAAANAIKEDGSSTKTLSEVATSSRGF", "notes": "full-length ORF (464-477 residues range for the three), GST fusion in pGEX-2T (given as C-terminal fusion with GST tag), E. coli BL21, glutathione Sepharose purified"}, "B2": {"name": "PlUGT57 (Pueraria montana var. lobata) (protein)", "chain": "MGSEAPIHVLMVSYPAQGHINPLLRLGKCLAAKGLFVTFTTSETAGKDMRKANNITDKSVIPVGDGFLKFDFFEDGMADDDVSKKKSLSDVSAQLELVGKQYVSQMIKKHAESHHPISCIINNPFVPWVCDVAAEHAIPSAMLWIQSSAVFTAYYSYFYKLVSFPSDADPYVDVQLSSVVLKHNEVPDFLHPFSPYRFLGTLILEQFKNLSKPFCVLVDSFEELEHDYIDYLSKFLDIRPVGPLFKTPIATGTSDIRGDFMKSDDCIEWLNSRAPASVVYISFGSIVYLPQEQVTEIAHGLLNSHVSFLWVLKPPPKGYGVPPHVLPDGFFEGTRDKGKVVQWSPQEEVLAHPSVACFLTHCGWNSSMEALTLGMPMLTFPAWGDQVTNAKFLVDVFGVGIKLGYGHAAKKVVSREEVKKCLLEATVGPKAEELKQISFKWKKAAEAAVAANGSSARNLDAFMKDIKKRGAVGVNEI", "notes": "as for B1"}},
  "key": {"[1]": {"substrate": "O=c1c(-c2ccc(O)cc2)coc2cc(O)ccc12", "assay": "HPLC glucosylation assay", "format": "biochemical, Pueraria montana", "conditions": "UDP-glucose co-substrate (5 mM in the activity assay), 50 mM Tris-HCl pH 8.0, 30°C"}, "[2]": {"substrate": "O=c1c(-c2ccc(O)cc2)coc2cc(O)cc(O)c12", "assay": "HPLC glucosylation assay", "format": "biochemical, Pueraria montana", "conditions": "UDP-glucose co-substrate (5 mM in the activity assay), 50 mM Tris-HCl pH 8.0, 30°C"}},
  "data": [
    {"protein": "B1", "values": [
      {"measurement": "Km", "setting": "[1]", "result": "110.8 ± 36.4", "unit": "µM"},
      {"measurement": "kcat", "setting": "[1]", "result": "0.0075 ± 0.0009", "unit": "s⁻¹"},
      {"measurement": "kcat/Km", "setting": "[1]", "result": 67.1, "unit": "M⁻¹ s⁻¹"},
      {"measurement": "Km", "setting": "[2]", "result": "87.3 ± 38.9", "unit": "µM"},
      {"measurement": "kcat", "setting": "[2]", "result": "0.014 ± 0.0021", "unit": "s⁻¹"},
      {"measurement": "kcat/Km", "setting": "[2]", "result": 156, "unit": "M⁻¹ s⁻¹"}
    ]},
    {"protein": "B2", "values": [
      {"measurement": "Km", "setting": "[1]", "result": "16.3 ± 1.87", "unit": "µM"},
      {"measurement": "kcat", "setting": "[1]", "result": "0.034 ± 0.0009", "unit": "s⁻¹"},
      {"measurement": "kcat/Km", "setting": "[1]", "result": 2100, "unit": "M⁻¹ s⁻¹"},
      {"measurement": "Km", "setting": "[2]", "result": "7.68 ± 3.58", "unit": "µM"},
      {"measurement": "kcat", "setting": "[2]", "result": "0.11 ± 0.01", "unit": "s⁻¹"},
      {"measurement": "kcat/Km", "setting": "[2]", "result": 13700, "unit": "M⁻¹ s⁻¹"}
    ]}
  ]
}
